# Laboratory results: patent US20250215081A1
# Where a chain is given by its changes, count along the chain named.
# B1: anti-CD3 antibody CD3hi (mAb) (antibody, V domains shown)
# VH: EVQLVESGGGLVQPGGSLKLSCAASGFTFNTYAMNWVRQASGKGLEWVGRIRSKYNNYATYYADSVKDRFTISRDDSKSTLYLQMNSLKTEDTAVYYCVRHGNFGNSYVSWFAYWGQGTLVTVSS
# VL: QAVVTQEPSLTVSPGGTVTLTCRSSTGAVTTSNYANWVQQKPGQAPRGLIGGTNKRAPWTPARFSGSLLGDKAALTLSGAQPEDEAEYFCALWYSNLWVFGGGTKLTVL
# B2: anti-CD3 antibody CD3lo (mAb) (antibody, V domains shown)
# VH: B1 VH with L81A
# VL: B1 VL
# B3: anti-CD3 antibody CD3med (mAb) (antibody, V domains shown)
# VH: B1 VH with S79N, L81A, Y114H
# VL: B1 VL with R23G, T31S, D71G, F89Y
# Key:
# [1] = target: human Fc gamma receptor 1A (human) (UniProt P12314); experiment: SPR (Biacore T200), antibody amine-coupled on CM5 (~950 RU), FcγR1A as analyte
# Sequence of UniProt P12314 (P12314 16-288 limits assumed): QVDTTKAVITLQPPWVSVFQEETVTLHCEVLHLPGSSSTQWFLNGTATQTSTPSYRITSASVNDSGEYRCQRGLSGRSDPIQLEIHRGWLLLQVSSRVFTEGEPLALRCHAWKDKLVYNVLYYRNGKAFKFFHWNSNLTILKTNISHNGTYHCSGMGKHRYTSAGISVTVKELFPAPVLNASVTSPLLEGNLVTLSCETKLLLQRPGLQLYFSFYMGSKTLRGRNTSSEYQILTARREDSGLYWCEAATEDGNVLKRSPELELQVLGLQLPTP
# CD3-Fc = experiment: SPR (Biacore T200, 25 C), CD3-Fc captured on anti-hFc CM5 chip, antibody as analyte, 1:1 model
Molecule,Maximum response at 100 nM hFcgammaRIA (RU) [1],Kd (CD3-Fc)
Anti-CD3 DAPASK-IgG1 (D265A/P329A/S267K) (antibody),13 RU,
Anti-CD3 LALASKPA-IgG1 (L234A/L235A/S267K/P329A) (antibody),9 RU,
Anti-CD3 DANAPA-IgG1 (D265A/N297A/P329A) (antibody),11 RU,
Anti-CD3 GADAPA-IgG1 (G237A/D265A/P329A) (antibody),16 RU,
Anti-CD3 LALAGA-IgG1 (L234A/L235A/G237A) (antibody),15 RU,
Anti-CD3 GADAPASK-IgG1 (G237A/D265A/P329A/S267K) (antibody),10 RU,
Anti-CD3 LALAPG-IgG1 (L234A/L235A/P329G) (antibody),18 RU,
B1,,16 nM
B2,,48 nM
B3,,30 nM
